According to article PMC9482650, “Quantitative fragmentomics allow affinity mapping of interactomes” (Nature Communications, 2022):

Columns and labels:
Test in all cases: holdup assay
Design in all cases: key: below the threshold = too weak to quantify, mostly under pKd 3.1 to 4
PICK1, Q9NRD5 = biological target: PICK1, Q9NRD5
LIN7A, O14910 = biological target: T1, LIN7A, O14910
T1 sequence (O14910 103-200, limits assumed, looked up): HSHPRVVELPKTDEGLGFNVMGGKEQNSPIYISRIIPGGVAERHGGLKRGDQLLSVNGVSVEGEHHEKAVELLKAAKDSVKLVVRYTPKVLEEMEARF

SNTA1, Q13424 = biological target: T2, SNTA1, Q13424
T2 sequence (Q13424 82-180, limits assumed, looked up): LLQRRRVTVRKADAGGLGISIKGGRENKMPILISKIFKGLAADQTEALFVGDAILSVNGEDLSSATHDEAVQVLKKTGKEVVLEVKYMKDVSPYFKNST

DLG4_2, P78352 = biological target: DLG4_2, P78352
GRIP1_2, Q9Y3R0 = biological target: T3, GRIP1_2, Q9Y3R0
T3 sequence (Q9Y3R0 145-248, limits assumed, looked up): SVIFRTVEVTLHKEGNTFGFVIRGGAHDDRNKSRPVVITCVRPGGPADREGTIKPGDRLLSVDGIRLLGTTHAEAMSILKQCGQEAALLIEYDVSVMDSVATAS

MAGI1_1, Q96QZ7 = biological target: MAGI1_1, Q96QZ7
PTPN13_1, Q12923 = biological target: T4, PTPN13_1, Q12923
T4 sequence (Q12923 1088-1188, limits assumed, looked up): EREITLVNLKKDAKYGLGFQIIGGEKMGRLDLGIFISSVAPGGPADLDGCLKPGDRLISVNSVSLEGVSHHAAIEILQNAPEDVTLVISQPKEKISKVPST

GRIP2_4, Q9C0E4 = biological target: GRIP2_4, Q9C0E4
MPP7, Q5T2T1 = biological target: T5, MPP7, Q5T2T1
T5 sequence (Q5T2T1 134-230, limits assumed, looked up): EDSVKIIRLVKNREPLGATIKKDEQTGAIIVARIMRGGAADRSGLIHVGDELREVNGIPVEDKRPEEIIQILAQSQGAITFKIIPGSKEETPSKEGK

NHERF3_3, Q5T2W1 = biological target: T6, NHERF3_3, Q5T2W1
T6 sequence (Q5T2W1 238-333, limits assumed, looked up): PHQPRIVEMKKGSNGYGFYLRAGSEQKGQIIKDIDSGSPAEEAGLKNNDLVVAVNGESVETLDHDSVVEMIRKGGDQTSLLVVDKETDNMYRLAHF

APBA2_2, Q99767 = biological target: T7, APBA2_2, Q99767
T7 sequence (Q99767 654-744, limits assumed, looked up): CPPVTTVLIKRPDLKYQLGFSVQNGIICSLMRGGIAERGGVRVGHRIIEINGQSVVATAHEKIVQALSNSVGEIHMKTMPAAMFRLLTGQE

PDZRN4_1, Q6ZMN7 = biological target: PDZRN4_1, Q6ZMN7
NOS1, P29475 = biological target: NOS1, P29475
PARD3_3, Q8TEW0 = biological target: PARD3_3, Q8TEW0
LNX2_2, Q8N448 = biological target: T8, LNX2_2, Q8N448
T8 sequence (Q8N448 334-432, limits assumed, looked up): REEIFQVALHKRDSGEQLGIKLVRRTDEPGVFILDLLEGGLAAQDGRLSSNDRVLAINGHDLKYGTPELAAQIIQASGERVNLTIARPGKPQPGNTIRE

GIPC2, Q8TF65 = biological target: GIPC2, Q8TF65
Inadl_8, Q8NI35 = biological target: Inadl_8, Q8NI35
APBA1_2, Q02410 = biological target: T9, APBA1_2, Q02410
T9 sequence (Q02410 742-832, limits assumed, looked up): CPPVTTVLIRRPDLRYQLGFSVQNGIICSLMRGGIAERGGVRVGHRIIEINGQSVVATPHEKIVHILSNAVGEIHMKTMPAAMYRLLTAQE

SNTG1, Q9NSN8 = biological target: T10, SNTG1, Q9NSN8
T10 sequence (Q9NSN8 52-150, limits assumed, looked up): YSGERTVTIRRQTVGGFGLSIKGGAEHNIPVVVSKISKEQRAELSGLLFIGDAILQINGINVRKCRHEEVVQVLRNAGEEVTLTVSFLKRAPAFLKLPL

Inadl_4, Q8NI35 = biological target: Inadl_4, Q8NI35
SYNJ2BP, P57105 = biological target: T11, SYNJ2BP, P57105
T11 sequence (P57105 8-110, limits assumed, looked up): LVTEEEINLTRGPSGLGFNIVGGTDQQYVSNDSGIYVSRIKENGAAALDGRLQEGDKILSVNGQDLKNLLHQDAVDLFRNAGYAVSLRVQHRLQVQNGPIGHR

DLG4_1, P78352 = biological target: DLG4_1, P78352
Inadl_2, Q8NI35 = biological target: Inadl_2, Q8NI35
SNX27, Q96L92 = biological target: SNX27, Q96L92
ARHGEF11, O15085 = biological target: T12, ARHGEF11, O15085
T12 sequence (O15085 42-136, limits assumed, looked up): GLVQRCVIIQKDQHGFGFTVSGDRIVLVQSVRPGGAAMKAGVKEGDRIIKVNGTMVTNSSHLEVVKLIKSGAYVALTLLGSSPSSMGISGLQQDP

IL16_4, Q14005 = biological target: IL16_4, Q14005
[1] = plain residues with an end cap or a label only (N-terminal biotin on a linker: ado-ado)
[2] = plain residues with an end cap or a label only (N-terminal biotin on a linker: ttds)

Sequence of Inadl_2, Q8NI35 (Q8NI35 238-335): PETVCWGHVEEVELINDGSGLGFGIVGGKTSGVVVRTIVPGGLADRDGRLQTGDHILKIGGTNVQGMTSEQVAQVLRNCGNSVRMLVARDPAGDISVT
Sequence of PICK1, Q9NRD5 (Q9NRD5 17-115): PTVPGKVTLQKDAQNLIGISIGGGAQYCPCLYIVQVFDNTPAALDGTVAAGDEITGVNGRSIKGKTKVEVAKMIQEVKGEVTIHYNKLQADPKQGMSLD
Sequence of NOS1, P29475 (P29475 9-101): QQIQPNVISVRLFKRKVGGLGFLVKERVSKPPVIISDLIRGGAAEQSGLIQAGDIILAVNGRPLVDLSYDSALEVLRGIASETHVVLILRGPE
Sequence of PDZRN4_1, Q6ZMN7 (Q6ZMN7 213-318): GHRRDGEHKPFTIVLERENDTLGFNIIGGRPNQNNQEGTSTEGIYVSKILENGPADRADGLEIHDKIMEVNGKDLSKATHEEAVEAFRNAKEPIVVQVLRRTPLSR
Sequence of Inadl_8, Q8NI35 (Q8NI35 1425-1530): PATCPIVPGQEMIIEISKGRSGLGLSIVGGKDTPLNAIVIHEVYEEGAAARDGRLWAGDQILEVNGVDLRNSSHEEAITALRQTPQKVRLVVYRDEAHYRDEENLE
Sequence of MAGI1_1, Q96QZ7 (Q96QZ7 1-106): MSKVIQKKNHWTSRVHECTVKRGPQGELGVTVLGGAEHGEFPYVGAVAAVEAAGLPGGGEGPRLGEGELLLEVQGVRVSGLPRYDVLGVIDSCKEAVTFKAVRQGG
Sequence of GIPC2, Q8TF65 (Q8TF65 112-203): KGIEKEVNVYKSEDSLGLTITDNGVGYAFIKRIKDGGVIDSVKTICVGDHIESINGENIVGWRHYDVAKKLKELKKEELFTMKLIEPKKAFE
Sequence of IL16_4, Q14005 (Q14005 1229-1329): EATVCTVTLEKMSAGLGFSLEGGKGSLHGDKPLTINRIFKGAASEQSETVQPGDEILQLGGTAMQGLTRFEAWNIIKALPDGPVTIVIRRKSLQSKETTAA
Sequence of Inadl_4, Q8NI35 (Q8NI35 547-651): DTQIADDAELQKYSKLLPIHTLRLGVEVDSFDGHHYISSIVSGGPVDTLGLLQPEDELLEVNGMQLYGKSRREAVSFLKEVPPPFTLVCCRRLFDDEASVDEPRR
Sequence of DLG4_2, P78352 (P78352 155-259): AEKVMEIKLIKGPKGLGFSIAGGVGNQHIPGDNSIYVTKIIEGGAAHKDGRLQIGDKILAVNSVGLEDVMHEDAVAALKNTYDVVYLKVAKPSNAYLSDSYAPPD
Sequence of PARD3_3, Q8TEW0 (Q8TEW0 582-685): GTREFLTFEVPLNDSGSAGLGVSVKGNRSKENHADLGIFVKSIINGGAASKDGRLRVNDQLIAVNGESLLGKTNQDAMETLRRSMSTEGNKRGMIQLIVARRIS
Sequence of DLG4_1, P78352 (P78352 62-152): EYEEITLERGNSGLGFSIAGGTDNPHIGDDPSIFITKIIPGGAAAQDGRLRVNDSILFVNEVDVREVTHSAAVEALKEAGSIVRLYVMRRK
Sequence of GRIP2_4, Q9C0E4 (Q9C0E4 446-548): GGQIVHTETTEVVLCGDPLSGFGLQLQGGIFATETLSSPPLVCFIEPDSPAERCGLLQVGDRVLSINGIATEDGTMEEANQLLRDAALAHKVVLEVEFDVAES

B1: RCN1, Q15293 (peptide)
chain: EDLTKNHDEL
With B1 the pKd (PICK1, Q9NRD5; [1]) was “below the threshold”, the pKd (LIN7A, O14910; [1]) was “below the threshold” and the pKd (SNTA1, Q13424; [1]) was 3.5. For the same binder, the pKd (DLG4_2, P78352; [1]) was 3.62, the pKd (GRIP1_2, Q9Y3R0; [1]) was “below the threshold” and the pKd (MAGI1_1, Q96QZ7; [1]) was 3.62. For the same binder, the pKd (PTPN13_1, Q12923; [1]) was “below the threshold”, the pKd (GRIP2_4, Q9C0E4; [1]) was “below the threshold” and the pKd (MPP7, Q5T2T1; [1]) was “below the threshold”. For the same binder, the pKd (NHERF3_3, Q5T2W1; [1]) was “below the threshold”, the pKd (APBA2_2, Q99767; [1]) was “below the threshold” and the pKd (PDZRN4_1, Q6ZMN7; [1]) was 3.73. For the same binder, the pKd (NOS1, P29475; [1]) was 3.78, the pKd (PARD3_3, Q8TEW0; [1]) was “below the threshold” and the pKd (LNX2_2, Q8N448; [1]) was “below the threshold”. For the same binder, the pKd (GIPC2, Q8TF65; [1]) was “below the threshold”, the pKd (Inadl_8, Q8NI35; [1]) was “below the threshold” and the pKd (APBA1_2, Q02410; [1]) was 3.66. For the same binder, the pKd (SNTG1, Q9NSN8; [1]) was 3.64, the pKd (Inadl_4, Q8NI35; [1]) was “below the threshold” and the pKd (SYNJ2BP, P57105; [1]) was “below the threshold”. The pKd (DLG4_1, P78352; [1]) was 3.57, the pKd (Inadl_2, Q8NI35; [1]) was “below the threshold” and the pKd (SNX27, Q96L92; [1]) was 4. The pKd (ARHGEF11, O15085; [1]) was 3.79 and the pKd (IL16_4, Q14005; [1]) was “below the threshold”.

B2: SLCO1C1, Q9NYB5 (peptide)
chain: NYWPGKETQL
With B2 the pKd (PICK1, Q9NRD5; [2]) was “below the threshold”, the pKd (LIN7A, O14910; [2]) was 4.14 and the pKd (SNTA1, Q13424; [2]) was 5.51. The pKd (DLG4_2, P78352; [2]) was 4.78, the pKd (GRIP1_2, Q9Y3R0; [2]) was “below the threshold” and the pKd (MAGI1_1, Q96QZ7; [2]) was “below the threshold”. For the same binder, the pKd (PTPN13_1, Q12923; [2]) was “below the threshold”, the pKd (GRIP2_4, Q9C0E4; [2]) was “below the threshold” and the pKd (MPP7, Q5T2T1; [2]) was “below the threshold”. The pKd (NHERF3_3, Q5T2W1; [2]) was “below the threshold”, the pKd (APBA2_2, Q99767; [2]) was “below the threshold” and the pKd (PDZRN4_1, Q6ZMN7; [2]) was 5.47. The pKd (NOS1, P29475; [2]) was 4.41, the pKd (PARD3_3, Q8TEW0; [2]) was “below the threshold” and the pKd (LNX2_2, Q8N448; [2]) was “below the threshold”. For the same binder, the pKd (GIPC2, Q8TF65; [2]) was “below the threshold”, the pKd (Inadl_8, Q8NI35; [2]) was “below the threshold” and the pKd (APBA1_2, Q02410; [2]) was 4.08. For the same binder, the pKd (SNTG1, Q9NSN8; [2]) was 5.39, the pKd (Inadl_4, Q8NI35; [2]) was “below the threshold” and the pKd (SYNJ2BP, P57105; [2]) was 5.4. The pKd (DLG4_1, P78352; [2]) was 4.29, the pKd (Inadl_2, Q8NI35; [2]) was “below the threshold” and the pKd (SNX27, Q96L92; [2]) was 5.24. The pKd (ARHGEF11, O15085; [2]) was 4.53 and the pKd (IL16_4, Q14005; [2]) was “below the threshold”.

B3: CFTR, P13569 (peptide)
chain: TEEEVQDTRL
In the case of B3, the pKd (PICK1, Q9NRD5; [2]) is reported as “below the threshold”, the pKd (LIN7A, O14910; [2]) is reported as “below the threshold” and the pKd (SNTA1, Q13424; [2]) is reported as 3.79. The pKd (DLG4_2, P78352; [2]) was “below the threshold”, the pKd (GRIP1_2, Q9Y3R0; [2]) was “below the threshold” and the pKd (MAGI1_1, Q96QZ7; [2]) was “below the threshold”. For the same binder, the pKd (PTPN13_1, Q12923; [2]) was “below the threshold”, the pKd (GRIP2_4, Q9C0E4; [2]) was “below the threshold” and the pKd (MPP7, Q5T2T1; [2]) was “below the threshold”. The pKd (NHERF3_3, Q5T2W1; [2]) was 3.79, the pKd (APBA2_2, Q99767; [2]) was “below the threshold” and the pKd (PDZRN4_1, Q6ZMN7; [2]) was 3.99. The pKd (NOS1, P29475; [2]) was 3.53, the pKd (PARD3_3, Q8TEW0; [2]) was 3.89 and the pKd (LNX2_2, Q8N448; [2]) was “below the threshold”. The pKd (GIPC2, Q8TF65; [2]) was “below the threshold”, the pKd (Inadl_8, Q8NI35; [2]) was “below the threshold” and the pKd (APBA1_2, Q02410; [2]) was “below the threshold”. For the same binder, the pKd (SNTG1, Q9NSN8; [2]) was “below the threshold”, the pKd (Inadl_4, Q8NI35; [2]) was “below the threshold” and the pKd (SYNJ2BP, P57105; [2]) was “below the threshold”. For the same binder, the pKd (DLG4_1, P78352; [2]) was “below the threshold”, the pKd (Inadl_2, Q8NI35; [2]) was “below the threshold” and the pKd (SNX27, Q96L92; [2]) was 5.56. The pKd (ARHGEF11, O15085; [2]) was “below the threshold” and the pKd (IL16_4, Q14005; [2]) was “below the threshold”.
